Experimental data reported in US20120065254A1.

Molecular target: C5a receptor (CD88) on differentiated U937 cells (UniProt P21730)
Assay: cell-based or functional assay

C5a receptor (CD88) on differentiated U937 cells, sequence (P21730 whole entry): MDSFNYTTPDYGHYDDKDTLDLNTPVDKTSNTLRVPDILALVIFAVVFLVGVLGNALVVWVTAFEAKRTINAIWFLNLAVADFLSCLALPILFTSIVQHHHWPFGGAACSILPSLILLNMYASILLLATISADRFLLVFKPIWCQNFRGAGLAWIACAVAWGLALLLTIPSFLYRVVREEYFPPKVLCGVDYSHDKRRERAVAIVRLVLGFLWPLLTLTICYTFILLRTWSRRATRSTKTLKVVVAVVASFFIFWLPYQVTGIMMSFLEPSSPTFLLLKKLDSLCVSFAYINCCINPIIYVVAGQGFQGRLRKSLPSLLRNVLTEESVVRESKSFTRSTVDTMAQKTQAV

| Substance | chemotactic response of U937 cells [nM] | chemotaxis of U937 cells, maximal effective concentration [nM] |
| --- | --- | --- |
| His6-tagged monkey C5a (His6-macC5a) (ligand) | 0.8 | – |
| recombinant human C5a (from UniProt P01031 678-751) (ligand) | – | 1 |
